Data reported in the Human Domainome abundance scans (Beltran et al. 2025).
± gives the uncertainty stated by the source.

B1: Metastasis-associated protein MTA3, residues 265 to 317; numbered along this chain, Q9BTC8 (parent)
chain: RDEMEEWSASEASLFEEALEKYGKDFNDIRQDFLPWKSLTSIIEYYYMWKTTD

Variants of: B1
Assay: abundance fitness (aPCA) (normalised: wild type 0, dead -1); higher = more abundant; growth selection in yeast, the domain comes from the species named
Conditions: Homo sapiens

RDEMEEWSASEASLFEEALEKYGKDFNDIRQDFLPWKSLTSIIEYYSMWKTTD [Y47S] and RDEMEEWSASEASLFEEALEKYGKDFNDIRQDFLPWKSLTSIIEYYRMWKTTD [Y47R] are within error of each other in abundance fitness: 0.325 ± 0.14 for the first, 0.31 ± 0.078 for the second.

RDEMEEWSASEASLFEEALEKYGKDFNDIRQDFLPWKSLTSIIEYYTMWKTTD [Y47T] and RDEMEEWSASEASLFEEALEKYGKDFNDIRQDFLPWKSLTSIIEYYKMWKTTD [Y47K] are within error of each other in abundance fitness: 0.398 ± 0.14 for the first, 0.375 ± 0.23 for the second.

RDEMEEWSASEASLFEEALEKYGKDFNDIRQDFLPWKSLTSIIEYYQMWKTTD [Y47Q] and RDEMEEWSASEASLFEEALEKYGKDFNDIRQDFLPWKSLTSIIEYYNMWKTTD [Y47N] are within error of each other in abundance fitness: 0.329 ± 0.2 for the first, 0.053 ± 0.29 for the second.

First: RDEMEEWSASEASLFEEALEKYGKDFNDIRQDFLPWKSLTSIIEYYGMWKTTD [Y47G]
Second: RDEMEEWSASEASLFEEALEKYGKDFNDIRQDFLPWKSLTSIIEYYAMWKTTD [Y47A]
The abundance fitness of the first is lower: 0.027 ± 0.077 for the first, 0.387 ± 0.1 for the second.

Compared with RDEMEEWSASEASLFEEALEKYGKDFNDIRQDFLPWKSLTSIIEYYVMWKTTD [Y47V], RDEMEEWSASEASLFEEALEKYGKDFNDIRQDFLPWKSLTSIIEYYHMWKTTD [Y47H] is higher in abundance fitness: -0.681 ± 0.18 for the first, 0.196 ± 0.11 for the second.

Compared with RDEMEEWSASEASLFEEALEKYGKDFNDIRQDFLPWKSLTSIIEYYWMWKTTD [Y47W], RDEMEEWSASEASLFEEALEKYGKDFNDIRQDFLPWKSLTSIIEYYEMWKTTD [Y47E] is higher in abundance fitness: -0.174 ± 0.15 for the first, 0.516 ± 0.088 for the second.

Compared with RDEMEEWSASEASLFEEALEKYGKDFNDIRQDFLPWKSLTSIIEYYLMWKTTD [Y47L], RDEMEEWSASEASLFEEALEKYGKDFNDIRQDFLPWKSLTSIIEYYCMWKTTD [Y47C] is higher in abundance fitness: -0.735 ± 0.21 for the first, -0.187 ± 0.24 for the second.

Going from RDEMEEWSASEASLFEEALEKYGKDFNDIRQDFLPWKSLTSIIEYYYMYKTTD [W49Y] to RDEMEEWSASEASLFEEALEKYGKDFNDIRQDFLPWKSLTSIIEYYYMVKTTD [W49V], the abundance fitness falls from 0.077 ± 0.091 to -0.204 ± 0.083.

Going from RDEMEEWSASEASLFEEALEKYGKDFNDIRQDFLPWKSLTSIIEYYYMHKTTD [W49H] to RDEMEEWSASEASLFEEALEKYGKDFNDIRQDFLPWKSLTSIIEYYYMPKTTD [W49P], the abundance fitness falls from 0.122 ± 0.12 to -0.599 ± 0.12.

First: RDEMEEWSASEASLFEEALEKYGKDFNDIRQDFLPWKSLTSIIEYYYMDKTTD [W49D]
Second: RDEMEEWSASEASLFEEALEKYGKDFNDIRQDFLPWKSLTSIIEYYYMQKTTD [W49Q]
The abundance fitness of the first is lower: -0.532 ± 0.36 for the first, 0.349 ± 0.11 for the second.

RDEMEEWSASEASLFEEALEKYGKDFNDIRQDFLPWKSLTSIIEYYYMMKTTD [W49M] and RDEMEEWSASEASLFEEALEKYGKDFNDIRQDFLPWKSLTSIIEYYYMRKTTD [W49R] are within error of each other in abundance fitness: 0.353 ± 0.12 for the first, 0.514 ± 0.083 for the second.

RDEMEEWSASEASLFEEALEKYGKDFNDIRQDFLPWKSLTSIIEYYYMEKTTD [W49E] and RDEMEEWSASEASLFEEALEKYGKDFNDIRQDFLPWKSLTSIIEYYYMAKTTD [W49A] are within error of each other in abundance fitness: 0.075 ± 0.27 for the first, -0.088 ± 0.12 for the second.

First: RDEMEEWSASEASLFEEALEKYGKDFNDIRQDFLPWKSLTSIIEYYYMTKTTD [W49T]
Second: RDEMEEWSASEASLFEEALEKYGKDFNDIRQDFLPWKSLTSIIEYYYMKKTTD [W49K]
The abundance fitness of the first is lower: 0.248 ± 0.073 for the first, 0.497 ± 0.09 for the second.

RDEMEEWSASEASLFEEALEKYGKDFNDIRQDFLPWKSLTSIIEYYYMLKTTD [W49L] and RDEMEEWSASEASLFEEALEKYGKDFNDIRQDFLPWKSLTSIIEYYYMCKTTD [W49C] are within error of each other in abundance fitness: 0.112 ± 0.061 for the first, 0.061 ± 0.11 for the second.

Compared with RDEMEEWSASEASLFEEALEKYGKDFNDIRQDFLPWKSLTSIIEYYYMIKTTD [W49I], RDEMEEWSASEASLFEEALEKYGKDFNDIRQDFLPWKSLTSIIEYYYMNKTTD [W49N] is higher in abundance fitness: -0.04 ± 0.18 for the first, 0.404 ± 0.15 for the second.

Going from RDEMEEWSASEASLFEEALEKYGKDFNDIRQDFLPWKSLTSIIEYYYMWVTTD [K50V] to RDEMEEWSASEASLFEEALEKYGKDFNDIRQDFLPWKSLTSIIEYYYMWFTTD [K50F], the abundance fitness falls from 0.311 ± 0.11 to -0.62 ± 0.17.

Going from RDEMEEWSASEASLFEEALEKYGKDFNDIRQDFLPWKSLTSIIEYYYMWQTTD [K50Q] to RDEMEEWSASEASLFEEALEKYGKDFNDIRQDFLPWKSLTSIIEYYYMWITTD [K50I], the abundance fitness falls from -0.102 ± 0.077 to -0.653 ± 0.089.

RDEMEEWSASEASLFEEALEKYGKDFNDIRQDFLPWKSLTSIIEYYYMWMTTD [K50M] and RDEMEEWSASEASLFEEALEKYGKDFNDIRQDFLPWKSLTSIIEYYYMWETTD [K50E] are within error of each other in abundance fitness: -0.171 ± 0.13 for the first, -0.278 ± 0.092 for the second.

RDEMEEWSASEASLFEEALEKYGKDFNDIRQDFLPWKSLTSIIEYYYMWCTTD [K50C] and RDEMEEWSASEASLFEEALEKYGKDFNDIRQDFLPWKSLTSIIEYYYMWATTD [K50A] are within error of each other in abundance fitness: -0.279 ± 0.13 for the first, -0.42 ± 0.083 for the second.

Compared with RDEMEEWSASEASLFEEALEKYGKDFNDIRQDFLPWKSLTSIIEYYYMWLTTD [K50L], RDEMEEWSASEASLFEEALEKYGKDFNDIRQDFLPWKSLTSIIEYYYMWTTTD [K50T] is higher in abundance fitness: -0.444 ± 0.074 for the first, -0.271 ± 0.08 for the second.

Going from RDEMEEWSASEASLFEEALEKYGKDFNDIRQDFLPWKSLTSIIEYYYMWGTTD [K50G] to RDEMEEWSASEASLFEEALEKYGKDFNDIRQDFLPWKSLTSIIEYYYMWNTTD [K50N], the abundance fitness rises from -0.877 ± 0.18 to 0.024 ± 0.13.

RDEMEEWSASEASLFEEALEKYGKDFNDIRQDFLPWKSLTSIIEYYYMWDTTD [K50D] and RDEMEEWSASEASLFEEALEKYGKDFNDIRQDFLPWKSLTSIIEYYYMWPTTD [K50P] are within error of each other in abundance fitness: -0.593 ± 0.27 for the first, -0.472 ± 0.089 for the second.

RDEMEEWSASEASLFEEALEKYGKDFNDIRQDFLPWKSLTSIIEYYYMWHTTD [K50H] and RDEMEEWSASEASLFEEALEKYGKDFNDIRQDFLPWKSLTSIIEYYYMWSTTD [K50S] are within error of each other in abundance fitness: -0.127 ± 0.1 for the first, -0.2 ± 0.074 for the second.

RDEMEEWSASEASLFEEALEKYGKDFNDIRQDFLPWKSLTSIIEYYYMWRTTD [K50R] and RDEMEEWSASEASLFEEALEKYGKDFNDIRQDFLPWKSLTSIIHYYYMWKTTD [E44H] are within error of each other in abundance fitness: -0.288 ± 0.072 for the first, -0.438 ± 0.14 for the second.

With RDEMEEWSASEASLFEEALEKYGKDFNDIRQDFLPWKSLTSIIQYYYMWKTTD [E44Q] the abundance fitness was 0.015 ± 0.13.
